Common to all, as to test: FACS, 1 ug/mL antibody, transfected 293F cells
A general note: In flow cytometry, cells or beads pass a laser one at a time.

The target of one assay is T1, Variant 3: xPro1.FL-x3 (human; mouse).
T1 construct: Chimeric full-length LAG-3 on transfected 293F cells
T1 chain: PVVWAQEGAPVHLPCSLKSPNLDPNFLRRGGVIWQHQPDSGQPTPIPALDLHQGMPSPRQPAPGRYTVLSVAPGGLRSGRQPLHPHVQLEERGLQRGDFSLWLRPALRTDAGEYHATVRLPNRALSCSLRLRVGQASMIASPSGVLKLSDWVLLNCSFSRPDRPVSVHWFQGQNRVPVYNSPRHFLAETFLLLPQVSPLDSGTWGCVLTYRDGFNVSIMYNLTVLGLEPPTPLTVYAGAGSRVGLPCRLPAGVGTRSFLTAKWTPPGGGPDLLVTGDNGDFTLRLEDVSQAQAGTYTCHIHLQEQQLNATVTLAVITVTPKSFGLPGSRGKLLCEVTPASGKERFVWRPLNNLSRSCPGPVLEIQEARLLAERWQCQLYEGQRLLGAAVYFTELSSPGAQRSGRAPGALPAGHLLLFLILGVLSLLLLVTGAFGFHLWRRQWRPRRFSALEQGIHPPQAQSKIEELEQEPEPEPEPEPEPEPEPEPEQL
As to the method:
(§1) The 10 variants were cloned into pcDNA3 vector and used for 293F cell transfection. Briefly, 293F cells were diluted to a density of 1×10⁶ cells/mL with FreeStyle 293F medium and aliquots of 3 mL/well were added to 24-well plate. Transfections were performed using 293fectin reagent (Life Technologies). For each transfection, 3 μg of DNA were diluted in 150 μOpti-MEM I-reduced serum medium (Life Technologies), and then combined with 6μL 293fectin reagent pre-diluted in 150 μL Opti-MEM I reduced serum medium. The DNA/[…] mixture was allowed to stand at 25° C. for 20 min before being added to the culture. The transfected cells were analyzed by flow cytometry at 48 h post-transfection.
(§2) Binding of antibodies to chimeric LAG-3 variants or full length human/mouse LAG-3 was analyzed by flow cytometry. Briefly, 1 μg/mL antibodies were incubated with chimeric LAG-3-expressing transfected 293F cells for 1 hour at 4° C., and then incubated with 3 μg/mL goat anti-human IgG Fc R-PE (Jackson) for 40 min at 4° C. Cells were analyzed with flow cytometer.

The target of another assay is T2, Variant 4: xPro1.FL-x4 (human; mouse).
T2 construct: Chimeric full-length LAG-3 on transfected 293F cells
T2 chain: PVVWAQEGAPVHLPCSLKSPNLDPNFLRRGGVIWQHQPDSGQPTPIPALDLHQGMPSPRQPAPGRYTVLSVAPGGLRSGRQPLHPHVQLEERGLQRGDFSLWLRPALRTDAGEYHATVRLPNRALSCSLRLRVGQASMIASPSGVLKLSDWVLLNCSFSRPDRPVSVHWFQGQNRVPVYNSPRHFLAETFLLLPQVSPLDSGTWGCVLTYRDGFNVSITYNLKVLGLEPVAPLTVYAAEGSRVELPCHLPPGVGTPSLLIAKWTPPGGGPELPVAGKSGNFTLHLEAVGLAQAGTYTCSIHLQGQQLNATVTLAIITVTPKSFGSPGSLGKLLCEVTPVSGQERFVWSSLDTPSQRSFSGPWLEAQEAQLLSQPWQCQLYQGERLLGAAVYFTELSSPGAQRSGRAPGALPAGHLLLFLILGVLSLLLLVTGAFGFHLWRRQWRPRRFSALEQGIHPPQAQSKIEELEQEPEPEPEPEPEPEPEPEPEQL
As to the method: as §1, §2

The target in the next assay is T3, Variant 7: xPro1.FL-x7 (human; mouse).
T3 construct: Chimeric full-length LAG-3 on transfected 293F cells
T3 chain: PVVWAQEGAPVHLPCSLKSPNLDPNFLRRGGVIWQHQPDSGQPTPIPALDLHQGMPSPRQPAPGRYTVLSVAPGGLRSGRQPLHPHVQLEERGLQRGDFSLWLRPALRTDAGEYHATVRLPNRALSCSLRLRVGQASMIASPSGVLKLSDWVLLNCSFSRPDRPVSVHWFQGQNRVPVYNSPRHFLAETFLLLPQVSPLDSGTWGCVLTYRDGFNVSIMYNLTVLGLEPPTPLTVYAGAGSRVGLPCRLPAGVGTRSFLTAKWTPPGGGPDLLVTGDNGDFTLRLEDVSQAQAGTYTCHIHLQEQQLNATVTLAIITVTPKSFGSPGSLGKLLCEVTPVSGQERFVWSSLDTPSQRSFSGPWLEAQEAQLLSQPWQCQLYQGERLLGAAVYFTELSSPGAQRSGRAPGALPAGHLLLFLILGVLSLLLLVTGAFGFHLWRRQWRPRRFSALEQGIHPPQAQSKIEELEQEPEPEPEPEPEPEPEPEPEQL
How it is done: as §1, §2

The next assay deals with T4, Variant 8: xPro1.FL-x8 (human; mouse).
T4 construct: Chimeric full-length LAG-3 on transfected 293F cells
T4 chain: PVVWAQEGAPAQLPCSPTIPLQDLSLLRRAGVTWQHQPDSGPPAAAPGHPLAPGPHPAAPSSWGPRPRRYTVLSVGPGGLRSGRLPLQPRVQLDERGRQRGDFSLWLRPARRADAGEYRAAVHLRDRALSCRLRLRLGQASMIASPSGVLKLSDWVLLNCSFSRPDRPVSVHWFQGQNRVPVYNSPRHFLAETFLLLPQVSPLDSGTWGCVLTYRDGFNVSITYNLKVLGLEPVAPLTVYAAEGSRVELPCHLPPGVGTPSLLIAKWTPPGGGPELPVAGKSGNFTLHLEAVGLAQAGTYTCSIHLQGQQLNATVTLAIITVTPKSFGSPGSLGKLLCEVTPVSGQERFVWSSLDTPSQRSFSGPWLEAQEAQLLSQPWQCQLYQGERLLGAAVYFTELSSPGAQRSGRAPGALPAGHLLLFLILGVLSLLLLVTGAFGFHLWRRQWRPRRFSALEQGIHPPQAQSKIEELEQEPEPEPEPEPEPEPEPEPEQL
How it is done:
as §1, §2

B1: 1.53.3-uAb-IgG4k (antibody, V domains shown)
VH: QVQLQQWGAGLLKPSETLSLTCGVYGGSFSGYYWSWIRQPPGMGLEWIGEINHRGNTNYNPSLKSRVTISEDTSKNQFSLRLSSVTAADTAVYFCTRGEDYSDYDYYGDFWGQGTLVTVSS
VL: EIVLTQSPATLSLSQGERATLSCRASQSISSYLAWYQQKPGQAPRLLIYAASNRATGIPARFSGSGSGTDFTLTISSLEPEDFAIYYCQQRSNWPLTFGGGTKVEIK
notes: Fully human antibody from OMT rats; IgG4 kappa by its name
For B1, the MFI was 41.7 with Variant 3: xPro1.FL-x3, 41 with Variant 4: xPro1.FL-x4, 39.3 with Variant 7: xPro1.FL-x7 and 7430 in the assay with Variant 8: xPro1.FL-x8. In addition, the “PE+ %” value in the assay with Variant 3: xPro1.FL-x3 worked out at 2.03%; in the assay with Variant 4: xPro1.FL-x4, 1.42%; with Variant 7: xPro1.FL-x7, 1.52%; in the assay with Variant 8: xPro1.FL-x8, 97.6%.
